Measured values published in patent US20210388105A1 (ELPISCIENCE SUZHOU BIOPHARMA, published 2021).
Positions count from the first letter of the chain named.

B1: c35 (antibody, V domains shown)
VH: EVRLQQSGAELVKPGASVKLSCTASGFNIEDTYVHWMKQRPEQGLEWIGRIDPAIDNSKYDPKFQGKATITAVSSSNTAYLQLSSLTSEDTAVYYCALYDGYNVYAMDYWGQGTSVTVSS
VL: DIVMTQAAFSNPVTLGTSASISCRSSKNLLHSNGITYLYWYLQRPGQSPQLLIYRASTLASGVPNRFSGSESGTDFTLRISRVEAEDVGVYYCAQLLELPHTFGGGTKLEIK
notes: its making is not described; also called chimeric antibody c35
B2: hu23.H5L5 (antibody, V domains shown)
VH: QVQLVQSGAEVKKPGASVKVSCKASGYNLKDTFLHWVRQAPGQGLEWMGRIDPANGNIKYDPKFQGRVTITADTSANTAYMELISLRSEDTAVYYCANSPYYYGSGYRIFDVWGQGTTVTVSS
VL: QIVLTQSPATLSLSPGERATLSCSAFSSVNYMHWYQQKPGQAPRLLIYTTSNLASGIPTRFSGSGSGTSYTLTISSLEPEDFAVYYCQQRSTYPFTFGQGTKLEIK
notes: humanized c23

Key:
[1] = target: T1, KW27-2 (human CD39 mutant, C-terminal EGFP) (human, UniProt P49961 1-510); assay: FACS, mutant-EGFP on HEK293F cells
T1 construct: expressed on HEK293F cells; not shown: C-terminal EGFP fusion (vector pCMV3-GFPSpark)
T1 chain: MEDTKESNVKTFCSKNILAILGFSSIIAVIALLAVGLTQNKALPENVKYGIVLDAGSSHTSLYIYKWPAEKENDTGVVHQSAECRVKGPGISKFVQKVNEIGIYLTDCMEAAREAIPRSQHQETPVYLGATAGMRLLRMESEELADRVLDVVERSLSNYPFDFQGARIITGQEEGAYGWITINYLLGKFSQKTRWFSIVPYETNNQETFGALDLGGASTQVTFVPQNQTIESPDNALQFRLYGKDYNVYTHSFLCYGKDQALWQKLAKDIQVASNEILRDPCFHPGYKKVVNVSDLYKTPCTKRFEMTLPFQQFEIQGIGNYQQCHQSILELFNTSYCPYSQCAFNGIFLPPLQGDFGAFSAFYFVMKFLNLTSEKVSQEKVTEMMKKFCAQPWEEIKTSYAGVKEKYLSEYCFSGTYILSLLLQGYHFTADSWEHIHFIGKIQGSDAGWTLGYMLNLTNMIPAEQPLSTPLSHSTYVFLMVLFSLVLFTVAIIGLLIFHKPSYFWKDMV
Method in brief: (§1)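 HEK293F cells were transfected with human CD39 mutants carrying C-terminal GFP and used 3 days later. Antibodies were titrated from 100 nM (3-fold, 11 points) and detected by FACS with AlexaFluor647 anti-hIgG. Relative binding was AlexaFluor647 intensity divided by GFP intensity.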

[2] = target: T2, KW27-20 (human CD39 mutant, C-terminal EGFP) (human, UniProt P49961 1-510); assay: FACS, mutant-EGFP on HEK293F cells
T2 construct: expressed on HEK293F cells; not shown: C-terminal EGFP fusion (vector pCMV3-GFPSpark)
T2 chain: T1 chain with S81V, A82E, A111R, A115V, R138A, M139A, E142K
Method in brief: as §1

ENTPD3 protein = target: T3, ENTPD3 protein (Homo sapiens (Human), UniProt O75355 44-485); assay: ELISA on coated ENTPD3 protein, anti-hIgG-HRP, OD450
T3 construct: also called CD39L3; ENTPDase 3
T3 sequence: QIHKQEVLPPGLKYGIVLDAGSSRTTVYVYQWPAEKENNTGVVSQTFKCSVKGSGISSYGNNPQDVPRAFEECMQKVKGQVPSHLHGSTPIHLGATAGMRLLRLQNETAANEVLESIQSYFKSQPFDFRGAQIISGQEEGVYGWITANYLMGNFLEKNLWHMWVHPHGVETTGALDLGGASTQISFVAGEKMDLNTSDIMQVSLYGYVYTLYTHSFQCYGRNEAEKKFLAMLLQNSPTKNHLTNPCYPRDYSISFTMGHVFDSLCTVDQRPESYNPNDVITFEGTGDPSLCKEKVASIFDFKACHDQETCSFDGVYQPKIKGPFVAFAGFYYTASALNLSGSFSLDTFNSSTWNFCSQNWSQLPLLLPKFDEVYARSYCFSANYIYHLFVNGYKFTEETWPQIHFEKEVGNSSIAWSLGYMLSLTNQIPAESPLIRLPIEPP
Procedure: Binding specificity of the purified humanized antibody hu23.H5L5 against ENTPDase family members was detected by ELISA assay. Briefly, ENTPD1 (i.e. CD39) and ENTPD 2/3/5/6 proteins were coated on 96-well ELISA plates at 4° C. overnight, next day the ELISA plates were washed and blocked using blocking buffer (1% BSA in PBS with 0.05% Tween20) 200 μL/well for 2 hours. Then hu23.H5L5 gradients were duplicated into the wells and stained with anti-hIgG-HRP. After plate washing, the plates were developed with TMB substrate and stopped by 2N HCl. The OD450 were recorded using plate reader and platted by Graphpad Prism.

[3] = target: T4, mouse CD39 (full length, on CHOK1-mCD39 cells) (mouse, UniProt P55772 1-510); assay: FACS on CHO-k1/mCD39 cells, MFI [Continued) E]
T4 construct: whole, on cells
T4 sequence (looked up): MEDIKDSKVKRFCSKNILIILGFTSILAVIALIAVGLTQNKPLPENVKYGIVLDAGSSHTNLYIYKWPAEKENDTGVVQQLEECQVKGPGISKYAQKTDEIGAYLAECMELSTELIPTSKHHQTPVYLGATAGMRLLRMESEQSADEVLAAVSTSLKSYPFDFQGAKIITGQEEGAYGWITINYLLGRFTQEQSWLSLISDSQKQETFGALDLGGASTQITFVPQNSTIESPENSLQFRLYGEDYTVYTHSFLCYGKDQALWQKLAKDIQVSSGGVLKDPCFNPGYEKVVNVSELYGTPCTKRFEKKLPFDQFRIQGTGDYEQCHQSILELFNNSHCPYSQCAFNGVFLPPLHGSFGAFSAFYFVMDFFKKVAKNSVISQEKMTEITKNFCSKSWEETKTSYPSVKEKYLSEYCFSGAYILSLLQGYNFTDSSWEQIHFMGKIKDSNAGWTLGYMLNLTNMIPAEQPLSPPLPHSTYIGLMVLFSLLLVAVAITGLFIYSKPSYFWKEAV

Binder	binding result [1]	binding result [2]	binding result (ENTPD3 protein)	binding result [3]
B1	no binding (tested: 100 nM highest concentration)	–	–	–
B2	–	no binding (tested: 100 nM highest concentration)	no binding (tested: about 66 nM)	no binding
